Biological target: T1, human DLL3.FLAG (Adipogen #AG-40B-0151, amino acid 27-466) (human, UniProt Q9NYJ7 27-466)
T1 construct: range 27-466; The ELISA used human DLL3.FLAG or human DLL3.HIS (abcam #ab255797, amino acid 27-492); not shown: FLAG tag
T1 sequence (looked up): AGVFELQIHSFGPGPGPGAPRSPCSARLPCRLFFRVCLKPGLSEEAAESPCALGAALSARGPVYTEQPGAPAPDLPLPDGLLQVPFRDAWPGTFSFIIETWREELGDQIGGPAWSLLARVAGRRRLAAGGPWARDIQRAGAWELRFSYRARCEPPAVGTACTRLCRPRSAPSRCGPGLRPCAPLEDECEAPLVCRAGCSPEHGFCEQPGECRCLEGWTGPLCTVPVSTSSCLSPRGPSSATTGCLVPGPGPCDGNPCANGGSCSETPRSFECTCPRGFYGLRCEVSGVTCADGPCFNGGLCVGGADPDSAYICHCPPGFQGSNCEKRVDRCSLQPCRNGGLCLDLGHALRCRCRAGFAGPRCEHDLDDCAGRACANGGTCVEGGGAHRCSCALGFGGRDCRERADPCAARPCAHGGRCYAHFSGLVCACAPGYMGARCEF
Experiment: ELISA, plate coated with hDLL3-Flag, goat anti-human IgG Fc-HRP, TMB, A450

B1: Rovalpituzumab (Creative Biolabs #TAB-216CL) (antibody, V domains shown)
VH: QVQLVQSGAEVKKPGASVKVSCKASGYTFTNYGMNWVRQAPGQGLEWMGWINTYTGEPTYADDFKGRVTMTTDTSTSTAYMELRSLRSDDTAVYYCARIGDSSPSDYWGQGTLVTVSS
VL: EIVMTQSPATLSVSPGERATLSCKASQSVSNDVVWYQQKPGQAPRLLIYYASNRYTGIPARFSGSGSGTEFTLTISSLQSEDFAVYYCQQDYTSPWTFGQGTKLEIK
EC50 (read off the curve): ~0.08 nM

Source: patent US20240207462A1 (ABDERA THERAPEUTICS, published 2024)
